From patent US20200347127A1 (CRESCENDO BIOLOGICS, published 2020)
Read-outs that look alike come from different tables or passages of the source.

Assays:
recombinant human IL-17A [1] = target: T1, recombinant human IL-17A (human, UniProt Q16552 24-155); assay: BIAcore single-cycle kinetics on immobilised IL-17A, 1:1 binding fit
T1 construct: Bought recombinant protein (Peprotech AF-200-17); also called Peprotech AF-200-17
Protocol: (§1) VH binding kinetics were then determined from the (blank subtracted) sensorgram traces using 1:1 binding models and BIAevaluation software.

recombinant human IL-17A [2] = target: T1, recombinant human IL-17A; assay: competition ELISA, IL-17A binding to coated IL-17RA-Fc
Protocol: (§2) Following washing of excess coating antigen, as described above, the wells of the plate were incubated with 3% skimmed milk powder/PBS to block non-specific protein interactions. […] The mixture was then transferred to the assay plate and incubated for 1 hour at room temperature.
(§3) Where appropriate, curve fitting in PRISM was used to determine the EC₅₀ of inhibiting VH.

recombinant human IL-17A [3] = target: T1, recombinant human IL-17A; assay: SPR (BIAcore T200), IL-17A coupled to CM5 chip, single-cycle kinetics
Protocol: as §1

recombinant human IL-17A [4] = target: T1, recombinant human IL-17A; assay: cell-based or functional assay
recombinant human IL-17A [5] = target: T1, recombinant human IL-17A; assay: competition ELISA, IL-17A binding to coated IL-17RA-Fc; remark: listed apart in the source
Protocol: as §2, §3

recombinant human IL-17A [6] = target: T1, recombinant human IL-17A; assay: SPR (BIAcore T200), IL-17A coupled to CM5 chip, single-cycle kinetics; remark: listed apart in the source
Protocol: as §1

T1 sequence (Q16552 24-155): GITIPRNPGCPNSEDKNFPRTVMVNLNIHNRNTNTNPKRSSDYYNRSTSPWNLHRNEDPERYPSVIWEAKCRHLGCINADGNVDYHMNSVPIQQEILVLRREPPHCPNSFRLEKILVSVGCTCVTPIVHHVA

Row | Binder | Kd (recombinant human IL-17A [1]) [nM] | koff (recombinant human IL-17A [1]) [s⁻¹] | kon (recombinant human IL-17A [1]) [M⁻¹ s⁻¹] | IC50 (recombinant human IL-17A [2]) [nM] | Kd (recombinant human IL-17A [3]) [nM] | koff (recombinant human IL-17A [3]) [s⁻¹] | kon (recombinant human IL-17A [3]) [M⁻¹ s⁻¹] | Cell assay IC50 (nM), IL-17A-induced IL6 release from HT1080 (recombinant human IL-17A [4]) [nM] | IC50 (recombinant human IL-17A [5]) [nM] | Kd (recombinant human IL-17A [6]) [nM] | koff (recombinant human IL-17A [6]) [s⁻¹] | kon (recombinant human IL-17A [6]) [M⁻¹ s⁻¹]
1 | VH 1.2.2 (+HIS) (VHH, also called 1.2.2 (clone 1.2 with C terminal extension and His tag)) VHH: EVQLVESGGGLVQPGGSLRLSCAASGFTFSSYSMYWVRQAPGKGLEWVAEIKQDGSVQYYVSDVKGRFTISRDNAKNSLYLQMNSLRAEDTAVYYCAKGEILPLYFDYWGQGTLVTVSS | 0.55 | 0.000485 | 874000 |  |  |  |  |  |  |  |  | 
2 | Family 4 (clone 4.1) (VHH, Human single VH domain) VHH: QVQLVESGGGLVQPGGSLRLSCAASGFTFSSYWMNWVRQAPGKGLEWVATIKQDGSEKYYVDSVKGRFTISRDNATNSLFLQMNSLRAEDTAVYYCARGDTIFDGAFDIWGQGTMVTVSS |  |  |  | 3140 | 493 | 0.00289 | 5860 |  |  |  |  | 
3 | Clone 3.11 (VHH, Human single VH domain) VHH: QVQLVQSGAEVKKPGASVKVSCKASGYNFDAYHINWVRQAPGQGLEWMGSIKPNSGATKYAQKFQGRVTITRDTSISTAYMELSRLRSDDTAVYYCASLDRDTWYPHSYFGWFDSWGQGTLVTVSS |  |  |  |  |  |  |  | 17 | 8 | 0.44 | 0.000237 | 538000
4 | Clone 3.9 (VHH, Human single VH domain) VHH: QVQLVQSGAEVKKPGASVKVSCKASGYNFDAYHINWVRQAPGQGLEWMGSIKPNSGATKYAQKFQGRVTITRDTSISTAYMELSRLRSDDTAVYYCASMDRDYYDTSGYFGWFDSWGQGTLVTVSS |  |  |  |  |  |  |  | 182 | 43 | 21 | 0.00201 | 96400
5 | Clone 3.13 (VHH, Human single VH domain) VHH: QVQLVQSGAEVKKPGASVKVSCKASGYNFDAYHINWVRQAPGQGLEWMGSIKPNSGATKYAQKFQGRVTITRDTSISTAYMELSRLRSDDTAVYYCASLDRDTWYPHSYAGWFDSWGQGTLVTVSS |  |  |  |  |  |  |  | 5 | 2 | 0.197 | 0.000201 | 1.02e+06
6 | Clone 3.3 (VHH, Human single VH domain) VHH: QVQLVQSGAEVKKPGASVKVSCAASGYTFTDYYLHWVRQAPGQGLEWMGWINPNTGTTKYAREFEGRVTMTRDTSISTAYMELSRLRSDDTAVYYCASMDRDYYDTSGYFGWFDSWGQGTLVTVSS |  |  |  |  |  |  |  | 106 | 271 | 29 | 0.00285 | 99800
7 | Clone 3.6 (VHH, Human single VH domain) VHH: QVQLVQSGAEVKKPGASVKVSCAASGYTFTDYYLHWVRQAPGQGLEWMGWINPNTGTTKYAREFEGRVTMTRDTSISTAYMELSRLRSDDTAVYYCASLDRDWRSPNDYYGWFDSWGQGTLVTVSS |  |  |  |  |  |  |  | 28 | 3 | 0.838 | 0.00048 | 573000
8 | Clone 3.5 (VHH, Human single VH domain) VHH: QVQLVQSGAEVKKPGASVKVSCAASGYTFTDYYLHWVRQAPGQGLEWMGWINPNTGTTKYAREFEGRVTMTRDTSISTAYMELSRLRSDDTAVYYCASLDRDWRSPNDYFGWFDSWGQGTLVTVSS |  |  |  |  |  |  |  | 26 | 4 | 2.2 | 0.000619 | 281000
9 | Family 5 (clone 5.1) (VHH, Human single VH domain) VHH: EVQLVESGGGLVQPGGSLRLSCAASGFTFSSYWMSWVRQAPGKGLEWVANIKQDGSEKYYVDSVKGRFTISRDNAKNSLYLQMNSLRAEDTAVYYCAHGQWPFFDYWGQGTMVTVSS |  |  |  | 337 | 166 | 0.0505 | 304000 |  |  |  |  | 
